Earlier results as cited in patent US20240156960A1 (priority 2020, published 2024).

B1: 9A1 (antibody, listed as Homo sapiens, V domains shown)
VH: EVQLLESGGGVVQPGRSLRLSCVVSGFTFNNYGMHWVRQAPGKGLEWVAVISYEGSVKYYGDHVDGRFTISRDPFKNTLYLHMNNLRPDDTAVYYCAKVSAIFWLGQGLSPIDVWGQGTTVTVSS
VL: DIVMTQSPATLSASPGERVTLSCRASQNIRNNLAWYQQKPGQAPRLLIHGASTRAAGAPARFSGSGSDTQFTLTVSSLQSEDFAVYYCHQYSKWPVTFGGGTKVDIK
B2: C128 (antibody, listed as Homo sapiens, V domains shown)
VH: EVQLLESGGGLVQPGGSLRLSCAASGFTFSTYAMSWVRQAPGKGLEWVSTITGSGRDTYYADSVKGRFTISRDNSKNTLFLQLNSLRAEDAAVYSCANHPLASGDDYYHYYMDVWGKGTTVTVSS
VL: EIVLTQSPGTLSLSPGERATLSCRASQSVNSRQLAWYQQKPGQAPRLLIYGASSRATGIPERFSGSGSGTDFTLTISRLESEDFAVYHCQQYGSSRALTFGGGTKVEIK
B3: C130 (antibody, listed as Homo sapiens, V domains shown)
VH: QVQLVQSGAEVKKPGASVKVSCKASGYTFTNYYMHWVRQAPGQGLEWMGIINPSGGSTGYAQKFQGRVTMTRDTSTSTVYMELSSLRSEDTAVYYCARSRPTPDWYFDLWGRGTLVTVSS
VL: SYELTQPPSVSVAPGKTARITCGGNNIGSKSVHWYQQKPGQAPVLVIYYDSDRPSGIPERFSGSNSGNTATLTISRVEAGDEADYYCQVWDSSSDHPGVVFGGGTKLTVL

Key:
[1] = system: coronavirus named in the cell (SARS-CoV2, SARS-CoV1), S protein
[2] = system: coronavirus named in the cell (SARS-CoV2, SARS-CoV1)
SARS-CoV2 = details: source Davide Robbiani et al., 2020

Molecule | Binds to [1] | Not Neutralising Vs [2] | Not Neutralising Vs (SARS-CoV1) | Binds to (SARS-CoV2)
B1 | SARS-CoV2 | SARS-CoV2 |  | 
B2 |  |  | SARS-CoV1 | SARS-CoV2
B3 |  |  | SARS-CoV1, | SARS-CoV2
